Key:
PBRM1 BD4 [1] = molecular target: T1, PBRM1 BD4 (UniProt Q86U86 496-637); experiment: NMR titration (1H-15N HSQC); NMR: 0.1 mM 15N-BD, 50 mM K phosphate pH 7.0, 50 mM KCl, 2 mM DTT, 2 mM EDTA, 7% D2O, 25 C; EMSA: 50 mM K phosphate pH 7.0, 10 mM KCl, 2 mM DTT, 2 mM EDTA, 5% sucrose, on ice 1 h, gel at 4 C; details: protein: recombinant, tags: His tag, TEV-cleaved
PBRM1 BD2 [2] = molecular target: T2, PBRM1 BD2 (UniProt Q86U86 178-291); experiment: as above; details: protein: recombinant, tags: His tag, TEV-cleaved
T2 sequence (Q86U86 178-291): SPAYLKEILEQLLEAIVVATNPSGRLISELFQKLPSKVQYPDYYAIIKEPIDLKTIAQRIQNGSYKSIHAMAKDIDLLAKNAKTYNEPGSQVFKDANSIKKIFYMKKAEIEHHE

PBRM1 BD4 [3] = molecular target: T1, PBRM1 BD4; experiment: NMR titration (1H-15N HSQC); Kd only in figure, stated similar to other dsRNAs; NMR: 0.1 mM 15N-BD, 50 mM K phosphate pH 7.0, 50 mM KCl, 2 mM DTT, 2 mM EDTA, 7% D2O, 25 C; EMSA: 50 mM K phosphate pH 7.0, 10 mM KCl, 2 mM DTT, 2 mM EDTA, 5% sucrose, on ice 1 h, gel at 4 C; details: protein: recombinant, tags: His tag, TEV-cleaved
PBRM1 BD2 [4] = molecular target: T2, PBRM1 BD2; experiment: as above; details: protein: recombinant, tags: His tag, TEV-cleaved, hairpin
PBRM1 BD2 SKY_AAA = PBRM1 BD2 SKY_AAA (UniProt Q86U86 178-291, S275A;K277A;Y281A); experiment: NMR titration (1H-15N HSQC); NMR: 0.1 mM 15N-BD, 50 mM K phosphate pH 7.0, 50 mM KCl, 2 mM DTT, 2 mM EDTA, 7% D2O, 25 C; EMSA: 50 mM K phosphate pH 7.0, 10 mM KCl, 2 mM DTT, 2 mM EDTA, 5% sucrose, on ice 1 h, gel at 4 C; details: protein: recombinant; tags: His tag, TEV-cleaved; hairpin, UUCG loop
Sequence of PBRM1 BD2 SKY_AAA (Q86U86 178-291 S275A/K277A/Y281A): as the sequence (Q86U86 178-291) above, with S98A, K100A, Y104A counted along it

PBRM1 BD4 KRK_AAA = PBRM1 BD4 KRK_AAA (UniProt Q86U86 496-637, K511A;R512A;K513A); experiment: as above; details: protein: recombinant; tags: His tag, TEV-cleaved; hairpin, UUCG loop
Sequence of PBRM1 BD4 KRK_AAA (Q86U86 496-637 K511A/R512A/K513A): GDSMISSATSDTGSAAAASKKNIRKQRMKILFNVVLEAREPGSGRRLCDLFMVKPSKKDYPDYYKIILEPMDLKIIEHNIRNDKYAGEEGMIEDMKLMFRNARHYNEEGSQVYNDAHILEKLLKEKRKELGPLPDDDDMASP

T1 sequence (Q86U86 496-637): as the sequence (Q86U86 496-637 K511A/R512A/K513A) above, with A16K, A17R, A18K counted along it

B1: dsDNA 11 bp (dsDNA)
DNA 1: CGTAGACAGCT
DNA 2: AGCTGTCTACG
Kd (PBRM1 BD4 [1]; blunt): 500 ± 270 µM
Kd (PBRM1 BD2 [2]; blunt): 910 ± 380 µM

B2: dsRNAIV (no loop) (dsRNA)
RNA 1: GGCAUCGUGC
RNA 2: GCACGAUGCC
binding result (PBRM1 BD4 [3]; blunt): binds

CGTAGACAGCT (ssDNA) [ssDNA]
Kd (PBRM1 BD4 [1]): 2970 ± 140 µM
Kd (PBRM1 BD2 [2]): 130 ± 30 µM

UUUUUUUUUUUUU (ssRNA) [ssRNAI poly-U 13 nt]
Kd (PBRM1 BD4 [1]): 320 ± 140 µM
Kd (PBRM1 BD2 [2]): 350 ± 80 µM

GGCAUCGUGCUUCGGCACGAUGCC (structured_RNA) [dsRNAII stem-loop]
binding result (PBRM1 BD4 [3]; hairpin, UUCG loop): binds
binding result (PBRM1 BD2 [4]; UUCG loop): binds

GGCAUCGUGCAUCAGAAUGGCACGAUGCC (structured_RNA) [dsRNAIII stem-loop]
binding result (PBRM1 BD4 [3]; hairpin): binds
binding result (PBRM1 BD2 [4]): binds

GCGUAGACAGCUGUUCGCAGCUGUCUACGC (structured_RNA) [dsRNAI stem-loop 30 nt]
Kd (PBRM1 BD2 SKY_AAA): 200 ± 70 µM
Kd (PBRM1 BD4 [1]; hairpin, UUCG loop): 120 ± 20 µM
Kd (PBRM1 BD2 [2]; hairpin, UUCG loop): 25 ± 8 µM
Kd (PBRM1 BD4 KRK_AAA): 1020 ± 40 µM
